The text below walks through data of the nanobody polyreactivity screen of Harvey et al. (2022).

A short description of this data set: yeast display, Sf9 membrane polyspecificity reagent, FACS + sequencing; frameworks hold sequencing errors. The essentials:
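Galactose induction of a Saccharomyces cerevisiae BJ5465 synthetic nanobody display library ran 36–48 hours. The cells were then stained for 1 hour at 4 °C with 10% biotinylated, detergent-solubilized Sf9 membrane reagent, pulled down on streptavidin microbeads and FACS-sorted into low and high (top ~1%) gates on expression and reagent-binding fluorescence. Labels for polyreactivity follow the gate of origin.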
Regarding “QVQLVESGGRLVQAGGSLRLSCAASVITFLGNAMGWYRQAPGKERELVAAISASGGRTYYADSVKGRFTISRDNAKNTVYLLMNSLKPEDTAVYYCAAASKPWYYYWGQGTQVTVSS”, the “polyreactivity (PSR sort gate)” value is recorded as “high polyreactivity”.

On to “QVQLVESGGRLVQAGGSLRLSCAAYGSTFQVNAMGWYRQAPGKERELVAAISRGGGSTYYADSVKGRFTISRDNAKNTVYLQMNSLKPEETAVYYCAAVYYRRISQGDTQTYYQYNYWGQGTQVTVSS”, for which the “polyreactivity (PSR sort gate)” value is recorded as “high polyreactivity”. For the sequence “QVQLVESGGRLVQAGGSLRLSCAPSGFIFGYYAMGWYRQAPGKERELVAAISPSGGRTYYADSVKGRFTISRDNAKITVFLQMNSLKPEDTAVYYCAAEYAYSLDPEEDYWGQGTQVTVSS”, the “polyreactivity (PSR sort gate)” value is given as “high polyreactivity”. The entry for “QVQLVESGGRLVQAGGSLRLSCDPSGRTFWYYAMGWYRQAPGKERELVASISLSGSRTNYADSVKGRFTISRDNAKNTVYLQMNSLKPEDTAVYYCAADNFRQFGEYDYWGQGTQVTLSS” is “low polyreactivity”; for “QVQLVESGGRLVQAGGSLRLSCSASGFTLIHYAMGWYRQAHGKERELVAGITTSGGSTYYADSVKGRFTISRDNAKNTVYLQMNSLKPEDTAFYYCAAGSTTGQTGKVGYWGQGTQVTVSS” it is “high polyreactivity”. With “QVQLVESGGRLVQAGGSLRLSCSASGSTFRRNAMGWYRQAPGKERELVAAISWSSTRTYYADSVKGRFTISRDNAKNTVYLQMNSLKPEDTAVYYCAADSYGGGFQLYSYVSGLYYWGEGTQVTVSS”, the “polyreactivity (PSR sort gate)” value is reported as “high polyreactivity”.

For the sequence “QVQLVESGGRLVQAGGSLRLSWAASGRILWSNRMGWYRQAPGKERELVAAITYSGDTTYYADSVKGRFTISRDNEKNTVYLQMNSLKPDDTAVYYCAVEDAGQGGDYWGQGSQVTVSS”, the “polyreactivity (PSR sort gate)” value is on record as “low polyreactivity”. The same measure for “QVQLVESGGRLVQAGGSLSLSCAASGFIFWSYAMGWYRPAPGKERELVAAISARGGSTYYADSVKGRFTISRDNAKNTVYLQMTSLKPEDTAVYYCATYPTYEYDYWGQGTQVTLSS”: “high polyreactivity”. Consider “QVQLVESGGRLVQAGGSLSLSCAASGRTFGGYNMGWYRQAPGKERELVAAINWSGTTYYADSVKGRFTISRDNAKNTVYLQMNSLKPVDTAVYYCAASLVSYYGLARDSVDYWGQGTQVTVSS”, for which the “polyreactivity (PSR sort gate)” value is listed as “low polyreactivity”.

Regarding “QVQLVESGGRLVQAGRSLRLSCAASGFTFYDYAMVWYRQEPGKERELVARINGGGGTNYADSVKGRFTNSRDNAKNTVYLQMNSLKPEDTAVYYCAAEFGSRPPYDYWGQGTQVTVSS”, the “polyreactivity (PSR sort gate)” value is given as “low polyreactivity”. For the sequence “QVQLVESGGRLVQAGRSLRLSCAASGSTFYLYAMGWYRQAPGKERELVASISIGGSTNYADSVKGRFTISRDNAKNTVYLQMNSLKPEDTAVYYCNADYYYVRTVRRLGYWGQGSQVTVSS”, the “polyreactivity (PSR sort gate)” value is recorded as “low polyreactivity”. The same measure for “QVQLVESGGRLVQARGSLRLSCAASGRIFAYYTLGWYRQAPGKERELVAVISGSGGRTYYADSVKGRFTISRDNAKNTVYLQMNSRKPDDTAVYYCAAYYQGIKYDYWGQGTQVTVSS”: “high polyreactivity”; for “QVQLVESGGRLVQAVGSLRLRCAPSGNTFPVYAMGWYRQASGKERELVATITSGGSTNYADSVKGRFTISRDNAKNTVYLQMNSLKPEDTAVYYCARRAVYSKRRYDYWGQGTQVTVSS”: “low polyreactivity”; for “QVQLVESGGRLVQEGGSLRLSCAASGRTFSKYAMGWYRQAPGKERELVAAITWRGGRTYYADSVNGRFTISRDNAKNTVYLQMNSLKPEDTAVYYCAADPSIYRIYQYTNRYDYWGQGTQVTVSS”: “high polyreactivity”. In the case of “QVQLVESGGRLVQEGGSLRLSCAASGRTLYDYAMGWYRQAPGKERELVAGITWRGGSTSYAASVKGRFTISRDNAKNTVYLEMNSLKPEDTAVYDCATDGDERMDYWGQGTQVTVAS”, the “polyreactivity (PSR sort gate)” value is “low polyreactivity”. Turning to “QVQLVESGGRSVQAGGSRRLSCAASGFSFHYYAMGWYRAAPATERELVAAITSRGTATYYADSVKGRFTISRDTAKITVDLLMNCLKPEDTAVYYCAKASTERMGSWGQGTQVTVSS”, the “polyreactivity (PSR sort gate)” value was “high polyreactivity”. The same measure for “QVQLVESGGRVDQAGGSLRLRCAASGRTFPVYAMGWYRQAPGKERELVAAITRCDDSTYYADSVKGRFTISRDNAKNTVYFEMNSLKPEDTAVYYCARSSRESYEYDYWGQGTQVTVSS”: “low polyreactivity”; for “QVQLVESGGSLVQAGGSLLLSSAASLRTFGVNDIGWYRKAPGKERNFVAAISYSDTSTYYADSVKVSFTISRDNAKNTVYLQMNSLKPEDTAVYYCAVETYLQYDNGYGHDYWGQGTQVTVSS”: “low polyreactivity”; for “QVQLVESGGVFVQAGGTLRLSCAASGITLNGYVMGWYRQAPGKEREFVAVITTRGGSTYYADSVKGRFTISRDNAKNTVYLQMNSLNPEDTAVYYCAARYVREYNYWGQGTQVTVSS”: “high polyreactivity”. The same measure for “QVQLVESGGVLDPAGGSLRLSCAASGSTFISNAMRWYRQAPGKERELVATITYSDATTYYADSVKGRFTISRDNAKNTVYLQMNSLKPEDTAVYYCNTRFFRPLWGYNYWGQGTQVTVSS”: “low polyreactivity”; for “QVQLVESGGVLLQAGGSLRLSCAASGRIFTLYDRGWYRQAPGKEREMDAAISNSAGSTYYADSVKGRFTISRDNAKNTVYLQMNSLKPEDTAGYYCARSYSYWGYRSVYYWGQGTQVTVSS”: “high polyreactivity”; for “QVQLVESGGVLVEAGGSLRLSCASSGRIFTYYSMGWYRQAPGKERELVAAISRSGRTYYADSVKGRFTISRDNAKNTVYLQMNSLKPEDSAVYFCAAEYYYSWFEYWGQGTQVTVSS”: “high polyreactivity”.

For the sequence “QVQLVESGGVLVQAGASLRLSCAASVFTFRRYAMGWYRQAPGKERELVAAITRDDSTNYADSVKGRFTISRDNAKNTVYLQMNSLKPEDTAVYYCAARLWYPYYYWGQGTQVTVSS”, the “polyreactivity (PSR sort gate)” value is on record as “high polyreactivity”. Consider “QVQLVESGGVLVQAGGILRLSCAESGSIFSYYAMVWYRQAPWKERELVASISWNGTSTYYADSVKGRFTISRDNSKNTVYLQMNSLKPEDTAVYYCNVRFNYRGTYDYWGQGTQVTVSS”, for which the “polyreactivity (PSR sort gate)” value is reported as “low polyreactivity”.

Consider “QVQLVESGGVLVQAGGSLRISCAASGSTFYSYDMGWYRQAPGKERELVAAISSSSGSTYYADSVKARFTISRDNAKNTVYLQMNSLKPEDTAVYYCKRGRRYSHKYDYWGQVTQVTVSS”, for which the “polyreactivity (PSR sort gate)” value is “high polyreactivity”. In the case of “QVQLVESGGVLVQAGGSLRLSCAAAGRIFIWNAMGWYRQAPGKERELDAAISSGGTYYADSVKGRFTISRDNAKNTVYLQMNSLKPEDTAVYYCAADWEVYVSEFVYWGQGTQVTVSS”, the “polyreactivity (PSR sort gate)” value is listed as “low polyreactivity”.

Consider “QVQLVESGGVLVQAGGSLRLSCAASGFIFKYYAMGWYRQATGKERDLVAAISSSGGRKYYADSVKGRFTISRDNAKNTVYLHMNRLKPEDTAVYYCNKATFVTYYFLGYDYWGQGTQVTVSS”, for which the “polyreactivity (PSR sort gate)” value is given as “high polyreactivity”. The same measure for “QVQLVESGGVLVQAGGSLRLSCAASGFTFAYYAMGWYRQAPGKVRELVASITRSGGSTYYADSVKGRFTLSRDNAKNTVYLQMNSLKPEDTAVYYCAARYGLVRDVIPYDYWGQGTQVTVSS”: “high polyreactivity”; for “QVQLVESGGVLVQAGGSLRLSCAASGFTFYRYDMGWYRQAPVKERELVAAITWSGGSTYYADSLKGRFTISRDNAKNTVYLQMNSLKPEDTAVYDCAAENYDGGFEYWGLGTQVTVSS”: “low polyreactivity”; for “QVQLVESGGVLVQAGGSLRLSCAASGFTLKWNAMGWYRQAPGKERELVARISRSGGSTNYADSVKGRFTISRDNAKNTVYLQMISLKPEDTAVFYCNTPSSREMDYWGQGTQVTVSS”: “low polyreactivity”. Consider “QVQLVESGGVLVQAGGSLRLSCAASGITFEYYAMGWYRQAPGKERELVAAISWSGSSTYYADSVKGRFTISRDNAKNTVYLQMNSLKPEDTAVYYCNADSAWWASDDQYDYWGQGTQVTVSS”, for which the “polyreactivity (PSR sort gate)” value is recorded as “low polyreactivity”. In the case of “QVQLVESGGVLVQAGGSLRLSCAASGITLPVYGMGWYRQAPGKERELVAVIDIVGITNYADSVKGRFTISRDNAKNTVYLQMNSLNPEDTAVYYCAKRYVYIADGGEYYYWGQGTQVTVSS”, the “polyreactivity (PSR sort gate)” value was “low polyreactivity”. With “QVQLVESGGVLVQAGGSLRLSCAASGLIFKFYAMGWYRQAPGKERELVARISSSGGSTYYADSVKGRFTTSRDNAKNTVYLQMNSLKPEDTAVSYCAAGAYYVDRYARSSIFSYYYWGQATQVTVSS”, the “polyreactivity (PSR sort gate)” value is on record as “high polyreactivity”. As for “QVQLVESGGVLVQAGGSLRLSCAASGLTIQTNAMGWYREAPVKERELVAAISRRGSSTYYADSVKGRFTISRDNAKNTVYLQMISLKPEDTAVYYCATGGVLYPYWRGKRYGYWGQGTQVTVSS”, the “polyreactivity (PSR sort gate)” value is listed as “high polyreactivity”. The same measure for “QVQLVESGGVLVQAGGSLRLSCAASGRIFRYYAMGWYRQAPGKERELVAAIRYRSGGTYYADSVKGRFTISRDNAKNTVYLQMNSLKTEDTAVYYCNADKRLRGHGYDYWGEGTQVTVSS”: “high polyreactivity”; for “QVQLVESGGVLVQAGGSLRLSCAASGRIFSYYAMGWYRQAPGKERELVARITSRGASTYYADSVKGRFTISRDNAKNTVYLQMNSLKPEDTAVYYCAARKDSTRRFDYWGQGTQVTVLS”: “high polyreactivity”; for “QVQLVESGGVLVQAGGSLRLSCAASGRTFGHYAMGWYRQAPGKERELVAAITRDDGTNYADSVKGRFTISRDNAKNTVYLQMNSLKPEDTAVYYCDRDVLEKYRQSWGYVPLQGYDYWGQGTQVTVSS”: “low polyreactivity”. As to “QVQLVESGGVLVQAGGSLRLSCAASGRTFNLIAMGWYRQAPGKERELVAAISRSGGSTYYADSEKGRFTISRDNAKNTVYLQMNSLNPEETAVYYCNASALGRPYYRGSYFVFQGYEYWGLGTQVTVSS”, the “polyreactivity (PSR sort gate)” value was “low polyreactivity”.

Turning to “QVQLVESGGVLVQAGGSLRLSCAASGSIFCVNAMGWSRQAPGKERELVAAISWRGASTYYADSVKGRFTISRDNAMNTVYLQMNSLKPEDTAVYYCAAKCTGGDPYYAFDYWGQGTHVTVSS”, the “polyreactivity (PSR sort gate)” value is “low polyreactivity”. The same measure for “QVQLVESGGVLVQAGGSLRLSCAASGSIFEPYVMGWYRQPPGKERELVAAIRQSGGSTYYADSVKGRFTISRDNAKNTVYLQMNSLKPEDTAVYYCNAEQNPSGLYDYRGVEGEMGYWRQGTQVTVSS”: “low polyreactivity”; for “QVQLVESGGVLVQAGGSLRLSCAASGSIFGNYAMGWYRQAPGKETELVAAISYRGGSTYYADSVKGRFTISRDNAKNTVYLQMNSLKPEDTAVYYCNAGGRRRIFAHSSTGDYWGQGTQVTVSS”: “high polyreactivity”.
